Assay results reported in PMC11549327 (Nature Communications, 2024).

Biological target: the molecule itself
Test: cryo-EM structure

B1: E. coli ClpP-His6 (tetradecamer) (enzyme)
chain: not shown
  stoichiometry N: 14
